Test results taken from US20190211082A1.

Assays:
[1] = target: humanized monoclonal IgG (anti-IgE monoclonal antibody, "Xolair" manufactured by Novartis AG; generic name Omalizumab); assay: affinity chromatography, 1 mg IgG on 1 mL column, linear pH gradient 5.0 to 3.0 in 100 mM acetate buffer, pH at elution position
[2] = target: humanized monoclonal IgG (anti-IgE monoclonal antibody, "Xolair" manufactured by Novartis AG; generic name Omalizumab); assay: affinity chromatography, 1 mg IgG on 1 mL column, linear pH gradient 5.0 to 2.4 in 100 mM citrate buffer, pH at elution position
[3] = target: Fab fragment (IgG-Fab) derived from anti-IgE monoclonal antibody Omalizumab ("Xolair" manufactured by Novartis AG), made by papain digestion; assay: affinity chromatography, 1 mg Fab on 1 mL column, linear pH gradient 5.0 to 2.4 in 100 mM citrate buffer, pH at elution peak top, 25 °C
[4] = target: Fab fragment (IgG-Fab) derived from anti-IgE monoclonal antibody Omalizumab ("Xolair" manufactured by Novartis AG), made by papain digestion; assay: affinity chromatography, 1 mg Fab on 1 mL column, linear pH gradient 5.0 to 3.0 in 100 mM acetate buffer, pH at elution peak top, 25 °C

| Antibody elution pH (100 mM acetate buffer) [1] | Antibody elution pH (100 mM citrate buffer) [2] | Antibody elution pH (100 mM citrate buffer) [3] | Antibody elution pH (100 mM acetate buffer) [4] | Substance |
| --- | --- | --- | --- | --- |
| 3.64 pH | 3.53 pH |  |  | Protein A ligand of the commercially available Protein A carrier "HiTrap MabSelect SuRe" manufactured by GE Healthcare |
|  |  | 2.93 pH | 3.6 pH | Protein L ligand of the commercially available affinity separation matrix "HiTrap Protein L 1 mL-gel" manufactured by GE Healthcare |
|  |  | 2.71 pH | 3.47 pH | VL-κ-binding peptide of Experimental product A: 4 VL-κ-binding domains (SEQ ID NO: 2) of wild Protein L of Peptostreptococcus magnus 312 strain bound through the peptides that connect domains in SEQ ID NO: 1, with an active group for immobilization at the C-terminal (designed binder) |
